Experimental findings from PMC4449314 are described below.

Like-named read-outs stand apart in the source and are kept apart here.

Holding throughout (experiment): non-reducing SDS-PAGE of disulfide-linked products after anti-HA IP
For assay [1], the target named is HA-tagged human DAP12 aspartic acid-to-glutamine mutant (human).
The target in assay [2] is HA-tagged human DAP12 threonine-to-alanine mutant (human).
Assay [3] addresses HA-tagged human DAP12 aspartic acid-to-asparagine mutant (human).
The target is the same in assay [4]. The source holds these as a separate data set.
The target in assay [5] is HA-tagged human DAP12 aspartic acid-to-glutamic acid mutant (human).
For assay [6], the target named is HA-tagged human DAP12 aspartic acid-to-alanine mutant (human).

In assay [1], “HA-tagged human DAP12 aspartic acid-to-glutamine mutant (natural protein)” registered a stoichiometry N of 2.
Regarding “HA-tagged human DAP12 threonine-to-alanine mutant (natural protein)”, in assay [2], the fold decrease of trimer compared to WT stood at 5 fold, the fold increase of tetramer compared to WT is 2 fold and the stoichiometry N is 2.
Turning to “HA-tagged human DAP12 aspartic acid-to-asparagine mutant (natural protein)”, the values for the stoichiometry N in assay [3] and in assay [4] were 2 and 3, respectively.
“HA-tagged human DAP12 aspartic acid-to-glutamic acid mutant (natural protein)” gave a stoichiometry N in assay [5] of 2.
For “HA-tagged human DAP12 aspartic acid-to-alanine mutant (natural protein)”, in assay [6], the fold reduction of tetramer compared to WT was found to be 2 fold, the fold reduction of trimer compared to WT worked out at 10 fold and the stoichiometry N stood at 2.
